Reference: paper PMC9641244
Residue numbers refer to the chain shown, from its start.

Assays:
DMC1 E162A = molecular target: T1, DMC1 E162A (Homo sapiens, UniProt Q14565 1-340, E162A); experiment: EMSA
T1 sequence: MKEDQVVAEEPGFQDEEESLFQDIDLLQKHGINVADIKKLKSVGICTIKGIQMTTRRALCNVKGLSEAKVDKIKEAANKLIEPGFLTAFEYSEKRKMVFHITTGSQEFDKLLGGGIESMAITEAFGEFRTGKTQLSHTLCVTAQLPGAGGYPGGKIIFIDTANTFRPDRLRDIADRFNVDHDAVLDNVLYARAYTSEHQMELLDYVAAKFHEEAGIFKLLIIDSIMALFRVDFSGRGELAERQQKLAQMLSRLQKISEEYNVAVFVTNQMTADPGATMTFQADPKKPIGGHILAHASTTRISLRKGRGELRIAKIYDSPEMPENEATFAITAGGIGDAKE

Dmc1 E157K = molecular target: T2, Dmc1 E157K (Saccharomyces cerevisiae, UniProt P25453 1-334, E157K); experiment: EMSA
T2 sequence: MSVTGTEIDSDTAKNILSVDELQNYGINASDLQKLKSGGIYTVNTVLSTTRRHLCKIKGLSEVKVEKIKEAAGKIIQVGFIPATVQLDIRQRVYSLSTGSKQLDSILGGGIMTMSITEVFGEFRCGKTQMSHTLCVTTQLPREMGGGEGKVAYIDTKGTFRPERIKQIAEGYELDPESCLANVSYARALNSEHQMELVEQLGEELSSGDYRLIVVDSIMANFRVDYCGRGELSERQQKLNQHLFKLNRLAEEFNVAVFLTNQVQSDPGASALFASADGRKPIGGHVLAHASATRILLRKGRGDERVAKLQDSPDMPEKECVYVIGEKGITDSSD

DMC1 D317A [1] = molecular target: T3, DMC1 D317A (Homo sapiens, UniProt Q14565 1-340, D317A); experiment: EMSA
T3 sequence: T1 sequence with A162E, D317A

DMC1 D317K [2] = molecular target: T4, DMC1 D317K (Homo sapiens, UniProt Q14565 1-340, D317K); experiment: EMSA
T4 sequence: T1 sequence with A162E, D317K

Dmc1 D311K = molecular target: T5, Dmc1 D311K (Saccharomyces cerevisiae, UniProt P25453 1-334, D311K); experiment: EMSA
T5 sequence: T2 sequence with K157E, D311K

DMC1 E162K = molecular target: T6, DMC1 E162K (Homo sapiens, UniProt Q14565 1-340, E162K); experiment: BLI
T6 sequence: T1 sequence with A162K

DMC1 WT = molecular target: T7, DMC1 WT (Homo sapiens, UniProt Q14565 1-340); experiment: BLI
T7 sequence: T1 sequence with A162E

DMC1 D317K [3] = molecular target: T4, DMC1 D317K; experiment: BLI
DMC1 D317A [4] = molecular target: T3, DMC1 D317A; experiment: BLI

Measured: binding result

B1: pR231 90-mer (ssDNA)
DNA: AAATCAATCTAAAGTATATATGAGTAAACTTGGTCTGACAGTTACCAATGCTTAATCAGTGAGGCACCTATCTCAGCGATCTGTCTATTT
binds: DMC1 E162A | Dmc1 E157K | DMC1 D317A [1] | DMC1 D317K [2] | Dmc1 D311K

B2: pR231 90-mer biotinylated (ssDNA)
DNA: B1 DNA
binds: DMC1 E162K | DMC1 WT | DMC1 D317K [3] | DMC1 D317A [4]
